Source: patent publication US20250277200

Columns and labels:
C5a = test system: T1, C5a
T1 sequence: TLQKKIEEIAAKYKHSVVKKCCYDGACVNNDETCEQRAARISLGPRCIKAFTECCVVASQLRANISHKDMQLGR

Chain of CPN1-HSA (chain): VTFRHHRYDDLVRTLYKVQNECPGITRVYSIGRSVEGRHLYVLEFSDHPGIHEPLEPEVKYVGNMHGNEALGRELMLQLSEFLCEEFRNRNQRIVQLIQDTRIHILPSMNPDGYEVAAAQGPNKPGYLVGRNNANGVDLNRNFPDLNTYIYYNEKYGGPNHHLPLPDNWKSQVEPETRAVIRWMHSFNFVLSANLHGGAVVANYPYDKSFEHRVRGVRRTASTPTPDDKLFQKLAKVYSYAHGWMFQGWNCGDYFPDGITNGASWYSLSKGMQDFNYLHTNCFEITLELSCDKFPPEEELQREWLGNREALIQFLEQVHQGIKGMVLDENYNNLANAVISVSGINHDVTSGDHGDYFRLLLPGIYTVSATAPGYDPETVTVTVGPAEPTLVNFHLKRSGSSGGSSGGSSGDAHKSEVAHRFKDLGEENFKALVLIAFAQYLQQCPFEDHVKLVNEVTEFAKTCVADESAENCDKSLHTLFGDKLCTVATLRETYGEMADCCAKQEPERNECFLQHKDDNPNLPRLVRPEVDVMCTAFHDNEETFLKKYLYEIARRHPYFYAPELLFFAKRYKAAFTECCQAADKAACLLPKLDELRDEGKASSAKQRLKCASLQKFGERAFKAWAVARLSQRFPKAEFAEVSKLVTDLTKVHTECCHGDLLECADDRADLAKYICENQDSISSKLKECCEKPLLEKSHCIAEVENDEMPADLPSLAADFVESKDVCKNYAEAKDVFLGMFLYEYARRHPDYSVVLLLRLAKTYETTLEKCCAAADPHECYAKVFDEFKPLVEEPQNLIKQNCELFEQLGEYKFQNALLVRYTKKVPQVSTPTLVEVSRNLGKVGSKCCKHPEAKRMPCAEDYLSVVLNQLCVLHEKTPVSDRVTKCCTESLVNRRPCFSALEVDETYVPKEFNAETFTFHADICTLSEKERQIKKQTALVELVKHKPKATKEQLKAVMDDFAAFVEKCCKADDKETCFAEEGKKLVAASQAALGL
Chain of C3a (chain, as listed by the source): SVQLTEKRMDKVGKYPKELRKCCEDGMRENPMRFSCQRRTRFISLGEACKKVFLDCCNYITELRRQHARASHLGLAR

CPN1-HSA
% Cleavage (GPCR assay, purified enzyme) (C5a): 82%
% Cleavage (GPCR assay, supernatant) (C5a): 97%
% Cleavage (GPCR assay, purified enzyme) (C3a): 100%
% Cleavage (GPCR assay, supernatant) (C3a): 100%
Kcat/KM (Arg LC-MS/MS, purified enzyme) (C3a): 800000 M⁻¹ s⁻¹
